Laboratory results published in PMC10344781 (Nature Biotechnology, 2023).
Where a chain is given by its changes, count along the chain named. Each block holds one binder with its values, some of them ahead of it.

Molecular target: T1, single-chain mouse Trp2/H2-K^b (scpMHC), biotinylated (Mus musculus, H2-Kb, UniProt P01901;P01887, biotin on the biotinylation tag (BirA))
T1 construct: residues 180-188 of tyrosinase-related protein 2 (Trp2), mouse; linker, (G4S)3 or (G4S)4; beta2M; H2-K^b without the transmembrane domain; used as monomer, as streptavidin tetramer and on an SA chip; also called Trp2/H2-K^b tetramers; Trp2/H2-K^b monomer; source: Expi293, purified (Ni-NTA, Superdex 200)
Assay: flow cytometry on cells; yeast clones expressing TCRm scFv incubated with tenfold serially diluted target pMHC (monomer) for 1 h on ice, then streptavidin-AlexaFluor 647 for 15 min on ice
Conditions: one partner purified

binding result: binds
B1: scFv2 displayed on yeast (scFv, V domains shown)
VH: VLLQQSGPELVKPGASVKIPCKASGYTFTDYEMDWVKQSHGKSLEWIGSINPNNGGTMYNQKFKGKATLTVDKSSSAAYMEVRSLTSEDTAVYYCARKPYYGMNAWFAYWGQGTLVTVSA
VL: IQVTQSSSSFSVSLGDRVTITCKASEDIYNRLAWYQQKPGNAPRLLISGATSLETGVPDRFSGSGSRKDYTLIITSLQTEDVATYYCQQYYALPLTFGAGTKLELK
notes: 25-D1.16 scFv (PDB 3CVH) changed at the nine randomised peptide-contact CDR residues; also called clone 2

binding result: binds
B2: scFv12 displayed on yeast (scFv, V domains shown)
VH: B1 VH with E32D, M58I, Y101R, M103F, N104H
VL: B1 VL with A92G, L93Y
notes: 25-D1.16 scFv (PDB 3CVH) changed at the nine randomised peptide-contact CDR residues; also called clone 12

binding result: binds
B3: scFv19 displayed on yeast (scFv, V domains shown)
VH: B1 VH with E32Y, S49T, M58V, Y101S, M103H, N104P
VL: B1 VL with L93F
notes: 25-D1.16 scFv (PDB 3CVH) changed at the nine randomised peptide-contact CDR residues; also called clone 19
